# Data as given in patent US6858210B1, “Therapeutic and diagnostic domain 1 β2GPI polypeptides and methods of using same” (La Jolla Pharmaceutical Co., priority 1998, dated 2005).
# Like-named read-outs stand apart in the source and are kept apart here.
# Assays:
# [1] = system: antiphospholipid antibody in plasma from patient 6501; assay: Competitive antibody binding ELISA with patient plasma on β2GPI coated plates; set-up: species or system human; conditions: plasma patient 6501, 1:200
# Method: Nunc Maxisorp microplates (Nalge Nunc International, Denmark) were coated with 100 μL/well of β2GPI at 2.5 μg/mL in PBS, incubated for 2 hours at room temperature, and blocked for 2 hours at room temperature with 250 μl/well of 2% nonfat milk with […] (Sigma Chemical Co.). […] After incubation for one hour at room temperature the plates were washed 5× with TBS. To each well was added 100 μL of alkaline phosphatase-conjugated anti-human IgG, gamma chain specific (Zymed) diluted 1:1000 in 2% nonfat milk with 0.4% Tween-80. After one hour at room temperature the plates were washed 5× with TBS. To each well was added 100 μl PPMP chromogenic substrate solution for color development at room temperature. Optical absorbance per well was determined at A550nm in a commercial microplate reader (Bio-Tek Instruments EL3 11).
# [2] = system: affinity purified β2GPI-dependent antiphospholipid antibody; assay: Competitive inhibition ELISA: recombinant β2GPI proteins compete for antibody binding to coated full length recombinant β2GPI; set-up: species or system human; conditions: for IC50: read-out: 50% (concentration to give 50% inhibition)
# Procedure, shortened: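 Wells coated with full-length recombinant β2GPI (10 μg/ml, pH 9.5) and milk-blocked. Serially diluted recombinant β2GPI proteins were co-incubated with a fixed concentration of patient antibody for 1 h at 37 °C. Bound IgG detected with alkaline phosphatase anti-human IgG at OD550; percent inhibition is background-corrected against inhibitor-free wells.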
# rabbit anti-β2GPI = assay: Direct binding ELISA, nickel chelate-coated wells, rabbit antibody; conditions: O.D. at 550 nm
# Method: Nickel Chelate-coated microwell plates (NCP 010 00 Xenopore Corp. 374 Midland Ave. Saddle Brook, N.J. USA) were coated with 50 μl of serial dilutions of the various recombinant β2GPI, in PBS, at room temperature for 2 hours. The plates were washed three times with PBS and blocked with 75 μl of a 1% gelatin (Sigma #G-2500) in PBS for one hour room temperature. […] The plates were washed three times with PBS, 50 μl of alkaline phosphatase conjugated anti-immunoglobulin (anti-human IgG, gamma chain specific, Zymed #62-8422) or anti-rabbit IgG (Zymed #62-6122) diluted appropriately in 1% gelatin was added and incubated at 37° C. for one hour. The plates were washed three times with PBS, 50 μl of alkaline phosphatase PPMP chromogenic substrate solution was added and incubated for 30 minutes at room temperature. The optical density, at 550 nm, was determined by reading the plates in a microplate autoreader (Bio-Teck Instruments, model EL311).
# Seven to nine different recombinant β2GPI mutant proteins were examined to determine if they could support the direct binding of affinity purified β2GPI-dependent antiphospholipid antibody preparations in the absence of anionic phospholipid. All recombinant mutant β2GPI were assayed with affinity purified β2GPI-dependent antiphospholipid antibody preparations from 11 different patients. Each mutant recombinant β2GPI protein was tested, in a dose dependent fashion and GST-6his was included as a negative control. The recombinant mutant β2GPI proteins were bound to nickel coated microtiter plates via their 6-his tail. All recombinant mutant β2GPI proteins tested bound rabbit anti-β2GPI showing that they were assessable by antibody (FIG. 5).
# [3] = system: affinity purified β2GPI-dependent antiphospholipid antibody; assay: Direct binding ELISA, nickel chelate-coated wells charged with recombinant β2GPI proteins (no cardiolipin); set-up: species or system human; conditions: O.D. at 550 nm
# Procedure, shortened: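 His-tagged recombinant β2GPI mutants captured on nickel chelate wells in serial dilution (2 h, room temperature), no anionic phospholipid; GST-6his as negative control. Affinity-purified patient antibodies (11 patients) or rabbit anti-β2GPI detected by alkaline phosphatase anti-IgG, OD 550 nm.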
molecule,measurement,setting,value
"Reduced and alkylated domain 1: β2GPI domain 1 polypeptide that had been reduced and alkylated, negative control (protein, also: reduced and alkylated cysteines, alkylating agent not given here, β2GPI domain 1 polypeptide that had been reduced and alkylated, negative control) GRTCPKPDDLPFSTVVPLKTFYEPGEEITYSCKPGYVSRGGMRKFICPLTGLWPINTLKCTPRV",competition for antiphospholipid antibody binding to β2GPI,[1],no such competition
"---45: recombinant β2GPI deletion mutant with domains 4, 5 (protein) GREVKCPFPSRPDNGFVNYPAKPTLYYKDKATFGCHDGYSLDGPEEIECTKLGNWSAMPSCKASCKLPVKKATVVYQGERVKIQEKFKNGMLHGDKVSFFCKNKEKKCSYTEDAQCIDGTIEVPKCFKEHSSLAFWKTDASDVKPCGHHHHHH",Max (maximum inhibition observed at concentrations tested),[2]; Ab 6203,10%
same,IC50,[2]; Ab 6203,> 40 µM
same,Max (maximum inhibition observed at concentrations tested),[2]; Ab 6501,15%
same,IC50,[2]; Ab 6501,> 40 µM
same,Max (maximum inhibition observed at concentrations tested),[2]; Ab 6509,20%
same,IC50,[2]; Ab 6509,> 5 µM
same,Max (maximum inhibition observed at concentrations tested),[2]; Ab 6626,15%
same,IC50,[2]; Ab 6626,> 40 µM
same,Max (maximum inhibition observed at concentrations tested),[2]; Ab 6632,20%
same,IC50,[2]; Ab 6632,> 40 µM
same,Max (maximum inhibition observed at concentrations tested),[2]; Ab 6641,20%
same,IC50,[2]; Ab 6641,> 5 µM
same,Max (maximum inhibition observed at concentrations tested),[2]; Ab 6644,10%
same,IC50,[2]; Ab 6644,> 40 µM
same,Max (maximum inhibition observed at concentrations tested),[2]; Ab 6652,20%
same,IC50,[2]; Ab 6652,> 5 µM
same,Max (maximum inhibition observed at concentrations tested),[2]; Ab 6701,15%
same,IC50,[2]; Ab 6701,> 5 µM
same,Max (maximum inhibition observed at concentrations tested),[2]; Ab 7008,20%
same,IC50,[2]; Ab 7008,> 40 µM
same,Max (maximum inhibition observed at concentrations tested),[2]; Ab 7015,10%
same,IC50,[2]; Ab 7015,> 40 µM
same,Max (maximum inhibition observed at concentrations tested),[2]; Ab 7101,5%
same,IC50,[2]; Ab 7101,> 40 µM
same,Max (maximum inhibition observed at concentrations tested),[2]; Ab 7104,5%
same,IC50,[2]; Ab 7104,> 40 µM
same,Maximum O.D.,rabbit anti-β2GPI,1.941
same,Maximum O.D.,[3]; Ab 6203,0.142
same,Maximum O.D.,[3]; Ab 6501,0.086
same,Maximum O.D.,[3]; Ab 6626,0.086
same,Maximum O.D.,[3]; Ab 6632,0.000
same,Maximum O.D.,[3]; Ab 6641,0.112
same,Maximum O.D.,[3]; Ab 6652,0.013
same,Maximum O.D.,[3]; Ab 6701,0.000
same,Maximum O.D.,[3]; Ab 7008,0.030
same,Maximum O.D.,[3]; Ab 7015,0.167
same,Maximum O.D.,[3]; Ab 7101,0.167
